Reference: US11548923B2, “Peptide compositions and methods of use thereof for disrupting TEAD interactions” (Fred Hutchinson Cancer Center, priority 2017, dated 2023)

Key:
[1] = tested on: HeLa cells expressing the HaloEnzyme; type: cell-based; settings: 1 μM HT-labeled peptide, 4 hours
Experimental: HeLa cells expressing the HaloEnzyme (a modified bacterial haloalkane dehalogenase, further modified to target to the cytosol-facing side of the outer mitochondrial membrane) were grown in 24 well dishes until ˜60% confluent. […] After incubation, cells were rinsed and incubated with Opti-MEM for 30 minutes, and were then incubated with 5 μM HT-TAMRA ligand (Promega G8251) for 30 minutes. An additional control with no HT-TAMRA was tested. After this incubation, cells were rinsed with PBS and then imaged on a fluorescent microscope in FITC/green (all cells) and TRITC/red (HT-TAMRA accumulation) channels.
FIG. 28 illustrates cell-by-cell quantitation of average fluorescence in the red channel of cells in a CAPA.

[2] = SYPRO Orange thermal shift (melting) assay; type: physicochemical; settings: heating from 20° C. to 95° C.
Experimental: Thermal Shift Assay. Protein melting temperature (Tm) determination can be performed by monitoring protein unfolding using SYPRO Orange dye (Molecular Probes). In brief, 0.1 mg/mL protein sample in 20 μL total volume PBS buffer can be mixed with 2 μL of 10×SYPRO Orange dye. Dye intercalation into the hydrophobic protein core following protein unfolding was assayed using the C1000 Touch Thermal Cycler with CFX96 Deep Well Real-Time System (BioRad). Samples were heated from 20° C. to 95° C. with stepwise increments of 0.5° C. per minute and a 5 see hold step for every point, followed by fluorescence reading. Tm were calculated by analyzing the derivatives of Relative florescence Units (RFU).
Protein secondary structures were assessed using Circular Dichroism (CD). CD spectra were measured with a Jasco J-720W spectropolarimeter using a 1.0 mm path length cell. Protein samples in 10 mM phosphate buffer (pH=7.4) were at 25-30 μM protein concentration. Samples were analyzed at wavelength ranges of 260-190 nM. Data were expressed in terms of relative ellipticity; (mdeg). […] Samples were heated from 20° C. to 95° C. with stepwise increments of 0.5° C. per minute and a 5 sec hold step for every point, followed by fluorescence reading. Tm was calculated by analyzing the derivatives of Relative florescence Units (RFU). […]

biotinylated TEAD = molecular target: T1, biotinylated TEAD (Homo sapiens, UniProt P28347); experiment: Surface plasmon resonance (SPR) binding of soluble peptides to captured biotinylated TEAD; settings: biotinylated TEAD immobilized on an SPR chip, read-out: dissociation constant (KD)
T1 construct: GST; made in house; host or cells: Hi5 insect cells (baculovirus, BacMagic, pIEX-BAC3)
T1 sequence (P28347 209-426): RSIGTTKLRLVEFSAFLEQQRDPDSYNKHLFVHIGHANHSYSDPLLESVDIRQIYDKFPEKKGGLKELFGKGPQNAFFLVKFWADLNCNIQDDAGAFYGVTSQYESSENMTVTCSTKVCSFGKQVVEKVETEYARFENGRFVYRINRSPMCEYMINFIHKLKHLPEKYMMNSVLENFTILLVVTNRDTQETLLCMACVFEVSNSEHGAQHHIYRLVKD

B1: GSGDCLPHLKRCKADNDCCGKKCKRRGTNAEKRCREPKSSDKTHTPDEYIERAKECCKKQDIQCCLRIFDESKDPNVMLICLFCW (peptide)
chain: GSGDCLPHLKRCKADNDCCGKKCKRRGTNAEKRCREPKSSDKTHTPDEYIERAKECCKKQDIQCCLRIFDESKDPNVMLICLFCW
cell penetration [1]: high cell penetration

B2: Human siderocalin: Human siderocalin (HuScn), control protein in SYPRO Orange melting assay (protein, UniProt P80188 21-198, looked up)
Neutrophil …: QDSTSDLIPAPPLSKVPLQQNFQDNQFQGKWYVVGLAGNAILREDKDPQKMYATIYELKEDKSYNVTSVLFRKKKCDYWIRTFVPGCQPGEFTLGNIKSYPGLTSYLVRVVSTNYNQHAMVFFKKVSQNREYFKITLYGRTKELTSELKENFIRFSKSLGLPENHIVFPVPIDQCIDG
melting temperature [2]: 79 °C

B3: Siderocalin-fused YAP: YAP (50-171) produced as a soluble siderocalin fusion (protein)
chain: QDSTSDLIPAPPLSKVPLQQNFQDNQFQGKWYVVGLAGNAILREDKDPQKMYATIYELKEDKSYNVTSVLFRKKKCDYWIRTFVPGCQPGEFTLGNIKSYPGLTSYLVRVVSTNYNQHAMVFFKKVSQNREYFKITLYGRTKELTSELKENFIRFSKSLGLPENHIVFPVPIDQCIDGAGHQIVHVRGDSETDLEALFNAVMNPKTANVPQTVPMRLRKLPDSFFKPPEPKSHSRQASTDAGTAGALTPQHVRAHSSPASLQLGAVSPGTLTPTGVVSGPAATPTAQHLRQSSFEIPDDV
modifications: left off: small tags and cut ends
Kd (biotinylated TEAD): 570 nM
